We go through 4 substances from patent publication US20240409637A1.

Assay [1] has as its target human CD8 alpha and beta subunit on JRT3.T3/AP1-Luc/CD28/CD8AB/1G4AB clone 18 reporter T cells (human) (UniProt P01732). Briefly: cell-based or functional assay.
Assay [2] has as its target human CD8 on cells (primary human CD8 positive T cells; T cells of mice expressing hCD8; human PBMC-derived lymphocytes) (human) (UniProt P01732). The experiment in a line: cell-based or functional assay.

Chain of human CD8 on cells (primary human CD8 positive T cells; T cells of mice expressing hCD8; human PBMC-derived lymphocytes) (human) (P01732 22-235, chain 1 of 2): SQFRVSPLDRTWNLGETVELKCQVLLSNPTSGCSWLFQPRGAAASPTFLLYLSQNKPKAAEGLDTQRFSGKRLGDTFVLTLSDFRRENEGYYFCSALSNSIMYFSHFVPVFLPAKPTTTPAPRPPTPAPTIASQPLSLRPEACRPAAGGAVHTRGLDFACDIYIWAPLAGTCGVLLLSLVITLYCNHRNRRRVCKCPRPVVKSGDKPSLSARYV
Chain of human CD8 on cells (primary human CD8 positive T cells; T cells of mice expressing hCD8; human PBMC-derived lymphocytes) (human) (chain, as listed by the source, chain 2 of 2): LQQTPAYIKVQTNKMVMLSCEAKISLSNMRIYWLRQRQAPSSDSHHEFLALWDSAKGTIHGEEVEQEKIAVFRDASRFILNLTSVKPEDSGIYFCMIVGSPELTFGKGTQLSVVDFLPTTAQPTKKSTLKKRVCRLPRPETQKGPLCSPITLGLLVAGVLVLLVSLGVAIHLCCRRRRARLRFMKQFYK
Chain of human CD8 alpha and beta subunit on JRT3.T3/AP1-Luc/CD28/CD8AB/1G4AB clone 18 reporter T cells (human) (P01732 22-235, chain 1 of 2): as the sequence (P01732 22-235, chain 1 of 2) above
Chain of human CD8 alpha and beta subunit on JRT3.T3/AP1-Luc/CD28/CD8AB/1G4AB clone 18 reporter T cells (human) (P10966 22-210, chain 2 of 2, further chain): as the sequence (chain, as listed by the source, chain 2 of 2) above

In assay [1], “Clone RPA-T8 (commercially available anti-CD8 antibody)” returned an IC50 [M], reduction of AP1-luciferase activity in CD8 T cell/APC luciferase assay of 1.61e-10 M and a Reduction of T cell response at 100 nM [%], CD8 T cell/APC luciferase assay of 97.9%.

In assay [1], Isotype 1 (antibody) registered a Reduction of T cell response at 100 nM [%], CD8 T cell/APC luciferase assay of 7.4%.

For the substance Isotype 2 (antibody), the Reduction of T cell response at 100 nM [%], CD8 T cell/APC luciferase assay in assay [1] is 6.2%.

“isotype control antibody (irrelevant isotype matched antibody)”: in assay [2], the Percent Inhibition of IFNγ Production, one-way MLR Reaction 1, 0.5 nM antibody was determined as 0.5%; the Percent Inhibition of IFNγ Production, one-way MLR Reaction 1, 5 nM antibody worked out at 3.9%; the Percent Inhibition of IFNγ Production, one-way MLR Reaction 1, 50 nM antibody is -6.6%; the Percent Inhibition of IFNγ Production, one-way MLR Reaction 2, 0.5 nM antibody worked out at 2.3%. Also, in assay [2], the Percent Inhibition of IFNγ Production, one-way MLR Reaction 2, 5 nM antibody was 3.4% and the Percent Inhibition of IFNγ Production, one-way MLR Reaction 2, 50 nM antibody was found to be 25.4%.
